# Test results: publication PMC7589614
# Where two headings read alike, the source gives them in different places.
# How the values were obtained:
# [1] = biological target: AbnA-D2 (D2), his-tagged arabinase family protein (Geobacillus stearothermophilus T-6) (UniProt B3EYN2); conditions: 5'-amino; Selection buffers listed (assay buffer and temperature not stated in material): AGR2 137 mM NaCl, 20 mM KCl, 10 mM Na2HPO4, 2 mM KH2PO4 pH 7.4; 6H7 50 mM …; cited from earlier work
# [2] = biological target: AbnA-D2 (D2), his-tagged arabinase family protein (Geobacillus stearothermophilus T-6) (UniProt B3EYN2); assay: porous silicon RIFTS (EOT) biosensor; conditions: 5'-amino; Selection buffers listed (assay buffer and temperature not stated in material): AGR2 137 mM NaCl, 20 mM KCl, 10 mM Na2HPO4, 2 mM KH2PO4 pH 7.4; 6H7 50 mM …
sequence,measurement,setting,value
GCTATGGGTGGTCTGGTTGGGATTGGCCCCGGGAGCTGGC [anti-his tag aptamer 6H7],Kd,[1],4.6 µM
same,Kd,[2],29 µM
